The values below come from patent publication US20120114682A1 (GEORGIA TECH RESEARCH, published 2012).

Where no end group is shown, it is not given here.

Test [1] concerns the target T1, Fibrinogen fragment D (human, UniProt P02671 130-216; P02675 164-491; P02679 114-432, limits assumed).
T1 construct: domain: Fragment D (or D-domain); Made by plasmin digestion of human fibrinogen and purified on GPRPAA beads; holds the C-terminal polymerization pockets without the N-terminal knobs; immobilised by amine coupling on the SPR chip; also called D-domain
T1 sequence (looked up) 1: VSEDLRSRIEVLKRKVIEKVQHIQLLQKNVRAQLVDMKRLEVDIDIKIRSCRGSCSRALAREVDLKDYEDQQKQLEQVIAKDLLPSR
T1 sequence (looked up) 2: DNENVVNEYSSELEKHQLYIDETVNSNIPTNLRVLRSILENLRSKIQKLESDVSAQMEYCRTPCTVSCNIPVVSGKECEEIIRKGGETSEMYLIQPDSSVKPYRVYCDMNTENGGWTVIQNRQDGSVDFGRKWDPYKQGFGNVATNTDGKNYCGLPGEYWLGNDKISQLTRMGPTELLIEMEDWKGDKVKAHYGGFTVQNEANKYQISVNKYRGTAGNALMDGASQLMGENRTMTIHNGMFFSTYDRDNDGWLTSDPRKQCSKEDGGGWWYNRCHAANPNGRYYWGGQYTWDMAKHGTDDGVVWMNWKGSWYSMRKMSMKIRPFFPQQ
T1 sequence (looked up) 3: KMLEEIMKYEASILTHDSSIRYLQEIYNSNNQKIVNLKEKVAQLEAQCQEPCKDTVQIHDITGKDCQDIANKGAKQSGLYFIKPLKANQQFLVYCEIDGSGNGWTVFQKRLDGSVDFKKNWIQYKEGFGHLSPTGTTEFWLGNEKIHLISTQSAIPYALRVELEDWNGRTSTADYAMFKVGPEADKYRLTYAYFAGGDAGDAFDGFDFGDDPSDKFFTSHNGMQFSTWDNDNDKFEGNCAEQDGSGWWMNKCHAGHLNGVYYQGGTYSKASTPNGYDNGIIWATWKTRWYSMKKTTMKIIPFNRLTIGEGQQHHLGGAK
In words: SPR maximal binding response against peptide concentration, fibrinogen fragment D immobilised. On the procedure:
Upon stabilization of the baseline signal, kinetic binding experiments were run in duplicate with the peptide variants as the flow analytes. Five varying concentrations for each peptide (0.94 μM to 150 μM) were flowed at 25 μL/min for 4 min immediately followed by a 10 min dissociation phase. Between each run, the surface was regenerated with 1M sodium bromide and 50 mM sodium acetate (pH 6.0). SPR experiments were performed three times with varying peptide injection order to rule out binding trends associated with injection sequence. Peptide solutions were incubated with tris(2-carboxyethyl)phosphine (TCEP) immobilized on agarose beads (Thermo Fisher Scientific, Inc; Rockland, Ill.) to ensure reduction of any disulfide bonds between C-terminal cysteines.
Prior to analysis, all sensorgrams were inspected for abnormalities (i.e. baseline drift, air spikes, or irregular deviations) and excluded. Reference cell responses were subtracted from corresponding active response curves. […] The resulting curves were then analyzed and fitted to the kinetic models. Kinetic modeling and simulations were performed with ClampXP software using the Langmuir 1:1 model or the heterogeneous ligand model; globally fitted parameters were determined for each kinetic data set per peptide. Equilibrium binding constants were calculated from fitted kinetic constants.

The target of test [2] is T1, Fibrinogen fragment D. Kind of test: affinity purification from plasmin-digested fibrinogen, elution with 1 M sodium bromide. On the procedure: Human fibrinogen (# FIB3, Enzyme Research Laboratories, South Bend, Ind.) at 2 mg/mL was digested with 0.1 U/mL human plasmin (Enzyme Research Laboratories) in HEPES+Ca buffer (150 mM NaCl, 5 mM CaCl₂, 25 mM HEPES, pH 7.4) overnight at room temperature. Fragment D (or D-domain) was isolated as previously described, with slight modifications, using a polymeric resin with covalently linked GPRPAA (SEQ ID NO:10) peptide (Kostelansky M S, et al. Biochemistry 2002, 41(40):12124-12132). Briefly, the plasmin-digested fibrinogen and GPRPAA-beads were incubated for 30 min, with occasional agitation. The unbound protein fragments were removed with exhaustive washing with HEPES+Ca buffer. Fragment D was eluted using 1 M sodium bromide, 50 mM sodium acetate, pH 5.3 and exchanged back into HEPES+Ca buffer using a centrifugal filter with MWCO 10,000.

The target in test [3] is T1, Fibrinogen fragment D. Kind of test: SPR competition with GPRP-FnIII9-10 on immobilised fragment D.

B1: GPSPAAC (peptide)
peptide: GPSPAAC
notes: Synthetic (GenScript); negative control; also called negative control peptide
Take B1: the binding result in the test with Fibrinogen fragment D [1] was “no binding (tested: just below 10^-4 M (last point))”. Regarding GPRPAA (not fully specified, also called GPRPAA-beads) [GPRPAA peptide covalently linked to a polymeric resin], the binding result with Fibrinogen fragment D [2] is reported as “binds”.

B2: GPRP tetrapeptide (peptide)
peptide: GPRP
notes: Synthetic (Genscript); also called A-knob tetrapeptide mimetic; soluble GPRP peptide
Take B2: the binding result with Fibrinogen fragment D [3] is reported as “binds”.
